Experimental data: PMC5473807, “Distribution and kinetics of the Kv1.3-blocking peptide HsTX1[R14A] in experimental rats” (Scientific Reports, 2017)
Where two headings read alike, the source gives them in different places.

Experiment: In vivo biodistribution by organ and tissue extraction
Design: species or system male Wistar rats
Details: male, Wistar, total radioactivity, rat; for SUV at 48 h / tissue uptake dose at 48 h: 2880 min p.i.; for SUV at 1 h / tissue uptake dose at 1 h: 60 min p.i.; for tissue uptake dose at 5 min / SUV at 5 min: 5 min p.i.; for dose excreted at 24 h: kidney and urine, read-out: renal elimination
Experimental: The present study includes data obtained from a total of 50 animals. Four animals (body weight 227 ± 10 g) for each time point were injected intravenously into a tail vein or subcutaneously with approximately 0.3 MBq ([…]) [^64Cu]Cu-NOTA-HsTX1[R14A] conjugate in 0.5 mL electrolyte solution E-153 (Serumwerk Bernburg, Germany). Animals were euthanised at 5, 60, 240, 1440 and 2880 min post-injection. Blood and the major organs were collected, weighed, and counted in a cross-calibrated γ-counter (Isomed 1000, Isomed GmbH, Dresden) and Wallac WIZARD Automatic Gamma Counter (PerkinElmer, Germany). The radioactivity of the tissue samples was decay-corrected and calibrated by comparing the counts in tissue with the counts in aliquots of the injected radiotracer that had been measured in the γ-counter at the same time. The activity in the selected organs was expressed as percent-injected dose per organ (% ID) and the activity concentration in tissues and organs as standardised uptake value (SUV). Values are quoted as mean ± standard error of mean (SEM) for each group of four animals.

[1] = femur, sc, 0.3 MBq, s.c., mean ± SD, n=4, read-out: Femur SUV
[2] = femur, sc, 0.3 MBq, s.c., mean ± SD, n=4, read-out: Femur activity amount
[3] = heart, iv, 0.3 MBq, i.v., mean ± SD, n=4, read-out: Heart activity amount
[4] = heart, iv, i.v., mean ± SD, n=4, read-out: Heart SUV
[5] = heart, sc, 0.3 MBq, s.c., mean ± SD, n=4, read-out: Heart activity amount
[6] = heart, sc, s.c., mean ± SD, n=4, read-out: Heart SUV
[7] = intestine, iv, 0.3 MBq, i.v., mean ± SD, n=4, read-out: Intestine activity amount
[8] = intestine, sc, 0.3 MBq, s.c., mean ± SD, n=4, read-out: Intestine activity amount
[9] = kidneys, iv, 0.3 MBq, i.v., mean ± SD, n=4, read-out: Kidneys SUV
[10] = kidneys, iv, 0.3 MBq, i.v., mean ± SD, n=4, read-out: Kidneys activity amount
[11] = kidneys, sc, 0.3 MBq, s.c., mean ± SD, n=4, read-out: Kidneys SUV
[12] = kidneys, sc, 0.3 MBq, s.c., mean ± SD, n=4, read-out: Kidneys activity amount
[13] = liver, iv, 0.3 MBq, i.v., mean ± SD, n=4, read-out: Liver SUV
[14] = liver, iv, 0.3 MBq, i.v., mean ± SD, n=4, read-out: Liver activity amount
[15] = liver, sc, 0.3 MBq, s.c., mean ± SD, n=4, read-out: Liver SUV

CSCC[C@@H]1NC(=O)[C@@H]2CSSC[C@H](NC(=O)[C@H](CO)NC(=O)[C@H](C)NC(=O)COCCOCCNC(=O)CN3CCN(CC(=O)O)CCN(CC(=O)O)CC3)C(=O)N[C@@H](CCCNC(=N)N)C(=O)N[C@@H]([C@@H](C)O)C(=O)N3CCC[C@H]3C(=O)N[C@@H](CCCCN)C(=O)N[C@@H](CC(=O)O)C(=O)N[C@H]3CSSC[C@H](NC(=O)[C@H](CCCCN)NC(=O)[C@H](CCCNC(=N)N)NC(=O)[C@H](CC(N)=O)NC1=O)C(=O)N[C@@H](CCCCN)C(=O)N[C@H]1CSSC[C@H](NC(=O)[C@@H]4CCCN4C(=O)[C@H](CC(=O)O)NC(=O)[C@H](C)NC3=O)C(=O)N[C@@H](C)C(=O)N[C@@H](CCCCN)C(=O)N[C@@H](CCC(=O)O)C(=O)N[C@@H]([C@@H](C)O)C(=O)NCC(=O)N[C@@H](CSSC[C@@H](C(N)=O)NC(=O)[C@H](CCCNC(=N)N)NC(=O)[C@H](CC(N)=O)NC1=O)C(=O)N1CCC[C@H]1C(=O)N[C@@H](Cc1ccc(O)cc1)C(=O)NCC(=O)N[C@@H](CCCCN)C(=O)N2 [[^64Cu]Cu-NOTA-HsTX1[R14A], metal not drawn]
SUV at 48 h (femur, iv, 0.3 MBq, i.v., mean ± SD, n=4, read-out: Femur SUV): 0.39 ± 0.02 SUV | tissue uptake dose at 48 h (femur, iv, 0.3 MBq, i.v., mean ± SD, n=4, read-out: Femur activity amount): 0.23 ± 0.01 %ID | SUV at 1 h [1]: 1.25 ± 0.07 SUV | tissue uptake dose at 1 h [2]: 0.82 ± 0.04 %ID | SUV at 4 h (femur, sc, 0.3 MBq, s.c., 240 min p.i., mean ± SD, n=4, read-out: Femur SUV): 0.92 ± 0.08 SUV | tissue uptake dose at 4 h (femur, sc, 0.3 MBq, s.c., 240 min p.i., mean ± SD, n=4, read-out: Femur activity amount): 0.64 ± 0.02 %ID | SUV at 24 h (femur, sc, 0.3 MBq, s.c., 1440 min p.i., mean ± SD, n=4, read-out: Femur SUV): 0.47 ± 0.02 SUV | tissue uptake dose at 24 h (femur, sc, 0.3 MBq, s.c., 1440 min p.i., mean ± SD, n=4, read-out: Femur activity amount): 0.34 ± 0.01 %ID | SUV at 48 h [1]: 0.34 ± 0.02 SUV | tissue uptake dose at 48 h [2]: 0.19 ± 0.02 %ID | tissue uptake dose at 5 min [3]: 0.33 ± 0.04 %ID | tissue uptake dose at 1 h (heart, iv, 0.3 MBq, i.v., mean ± SD, n=8, read-out: Heart activity amount): 0.21 ± 0.06 %ID | tissue uptake dose at 4 h (heart, iv, 0.3 MBq, i.v., 240 min p.i., mean ± SD, n=4, read-out: Heart activity amount): 0.19 ± 0.03 %ID | tissue uptake dose at 24 h (heart, iv, 0.3 MBq, i.v., 1440 min p.i., mean ± SD, n=8, read-out: Heart activity amount): 0.23 ± 0.02 %ID | tissue uptake dose at 48 h [3]: 0.27 ± 0.04 %ID | SUV at 5 min [4]: 1.04 ± 0.14 SUV | SUV at 1 h (heart, iv, i.v., mean ± SD, n=8, read-out: Heart SUV): 0.53 ± 0.08 SUV | SUV at 4 h (heart, iv, i.v., 240 min p.i., mean ± SD, n=4, read-out: Heart SUV): 0.4 ± 0.07 SUV | SUV at 24 h (heart, iv, i.v., 1440 min p.i., mean ± SD, n=8, read-out: Heart SUV): 0.62 ± 0.07 SUV | SUV at 48 h [4]: 0.64 ± 0.06 SUV | tissue uptake dose at 1 h [5]: 0.32 ± 0.02 %ID | tissue uptake dose at 4 h (heart, sc, 0.3 MBq, s.c., 240 min p.i., mean ± SD, n=4, read-out: Heart activity amount): 0.18 ± 0.03 %ID | tissue uptake dose at 24 h (heart, sc, 0.3 MBq, s.c., 1440 min p.i., mean ± SD, n=4, read-out: Heart activity amount): 0.23 ± 0.01 %ID | tissue uptake dose at 48 h [5]: 0.22 ± 0.01 %ID | SUV at 1 h [6]: 0.7 ± 0.03 SUV | SUV at 4 h (heart, sc, s.c., 240 min p.i., mean ± SD, n=4, read-out: Heart SUV): 0.41 ± 0.06 SUV | SUV at 24 h (heart, sc, s.c., 1440 min p.i., mean ± SD, n=4, read-out: Heart SUV): 0.53 ± 0.02 SUV | SUV at 48 h [6]: 0.57 ± 0.04 SUV | tissue uptake dose at 5 min [7]: 3.59 ± 2.4 %ID | tissue uptake dose at 1 h (intestine, iv, 0.3 MBq, i.v., mean ± SD, n=8, read-out: Intestine activity amount): 5.3 ± 2.31 %ID | tissue uptake dose at 4 h (intestine, iv, 0.3 MBq, i.v., 240 min p.i., mean ± SD, n=4, read-out: Intestine activity amount): 4.61 ± 1.84 %ID | tissue uptake dose at 24 h (intestine, iv, 0.3 MBq, i.v., 1440 min p.i., mean ± SD, n=8, read-out: Intestine activity amount): 16.5 ± 2.32 %ID | tissue uptake dose at 48 h [7]: 8.27 ± 1.01 %ID | tissue uptake dose at 1 h [8]: 7.85 ± 3.82 %ID | tissue uptake dose at 4 h (intestine, sc, 0.3 MBq, s.c., 240 min p.i., mean ± SD, n=4, read-out: Intestine activity amount): 4.65 ± 1.73 %ID | tissue uptake dose at 24 h (intestine, sc, 0.3 MBq, s.c., 1440 min p.i., mean ± SD, n=4, read-out: Intestine activity amount): 19.3 ± 1.35 %ID | tissue uptake dose at 48 h [8]: 8.16 ± 1.02 %ID | dose excreted at 24 h (iv, 0.3 MBq, i.v., one day after injection): 48 ± 3% | dose excreted at 24 h (sc, 0.3 MBq, s.c., one day after injection): 51 ± 2% | SUV at 5 min [9]: 35.1 ± 6.82 SUV | tissue uptake dose at 5 min [10]: 23.9 ± 3.93 %ID | SUV at 1 h (kidneys, iv, 0.3 MBq, i.v., mean ± SD, n=8, read-out: Kidneys SUV): 78.4 ± 13.6 SUV | tissue uptake dose at 1 h (kidneys, iv, 0.3 MBq, i.v., mean ± SD, n=8, read-out: Kidneys activity amount): 61.6 ± 4.21 %ID | SUV at 4 h (kidneys, iv, 0.3 MBq, i.v., 240 min p.i., mean ± SD, n=4, read-out: Kidneys SUV): 68.4 ± 4.28 SUV | tissue uptake dose at 4 h (kidneys, iv, 0.3 MBq, i.v., 240 min p.i., mean ± SD, n=4, read-out: Kidneys activity amount): 63.1 ± 0.97 %ID | SUV at 24 h (kidneys, iv, 0.3 MBq, i.v., 1440 min p.i., mean ± SD, n=8, read-out: Kidneys SUV): 18 ± 5.32 SUV | tissue uptake dose at 24 h (kidneys, iv, 0.3 MBq, i.v., 1440 min p.i., mean ± SD, n=8, read-out: Kidneys activity amount): 14.2 ± 2.04 %ID | SUV at 48 h [9]: 6.37 ± 0.59 SUV | tissue uptake dose at 48 h [10]: 6.19 ± 0.49 %ID | SUV at 1 h [11]: 58.1 ± 5.55 SUV | tissue uptake dose at 1 h [12]: 53.3 ± 4.9 %ID | SUV at 4 h (kidneys, sc, 0.3 MBq, s.c., 240 min p.i., mean ± SD, n=4, read-out: Kidneys SUV): 70.2 ± 4.14 SUV | tissue uptake dose at 4 h (kidneys, sc, 0.3 MBq, s.c., 240 min p.i., mean ± SD, n=4, read-out: Kidneys activity amount): 62.5 ± 2.36 %ID | SUV at 24 h (kidneys, sc, 0.3 MBq, s.c., 1440 min p.i., mean ± SD, n=4, read-out: Kidneys SUV): 14.4 ± 1.32 SUV | tissue uptake dose at 24 h (kidneys, sc, 0.3 MBq, s.c., 1440 min p.i., mean ± SD, n=4, read-out: Kidneys activity amount): 13.6 ± 1.1 %ID | SUV at 48 h [11]: 5.98 ± 1.08 SUV | tissue uptake dose at 48 h [12]: 4.95 ± 0.49 %ID | tissue uptake dose at 4 h (liver and intestine, iv, 0.3 MBq, i.v., 4 h, read-out: activity in the liver and intestine): 12 ± 3 %ID | tissue uptake dose at 24 h (liver and intestine, iv, 0.3 MBq, i.v., one day after injection, read-out: hepatobiliary elimination, maximum): 31 ± 3 %ID | tissue uptake dose at 4 h (liver and intestine, sc, 0.3 MBq, s.c., 4 h, read-out: activity in the liver and intestine): 11.4 ± 4 %ID | tissue uptake dose at 24 h (liver and intestine, sc, 0.3 MBq, s.c., one day after injection, read-out: hepatobiliary elimination, maximum): 30 ± 3 %ID | SUV at 5 min [13]: 1.02 ± 0.53 SUV | tissue uptake dose at 5 min [14]: 4.6 ± 2.22 %ID | SUV at 1 h (liver, iv, 0.3 MBq, i.v., mean ± SD, n=8, read-out: Liver SUV): 1.24 ± 0.31 SUV | tissue uptake dose at 1 h (liver, iv, 0.3 MBq, i.v., mean ± SD, n=8, read-out: Liver activity amount): 5.43 ± 1.44 %ID | SUV at 4 h (liver, iv, 0.3 MBq, i.v., 240 min p.i., mean ± SD, n=4, read-out: Liver SUV): 1.78 ± 0.45 SUV | tissue uptake dose at 4 h (liver, iv, 0.3 MBq, i.v., 240 min p.i., mean ± SD, n=4, read-out: Liver activity amount): 7.01 ± 1.47 %ID | SUV at 24 h (liver, iv, 0.3 MBq, i.v., 1440 min p.i., mean ± SD, n=8, read-out: Liver SUV): 2.93 ± 0.78 SUV | tissue uptake dose at 24 h (liver, iv, 0.3 MBq, i.v., 1440 min p.i., mean ± SD, n=8, read-out: Liver activity amount): 14.8 ± 2.42 %ID | SUV at 48 h [13]: 1.45 ± 0.13 SUV | tissue uptake dose at 48 h [14]: 8.35 ± 0.95 %ID | SUV at 1 h [15]: 1.13 ± 0.23 SUV | tissue uptake dose at 1 h (liver, sc, 0.3 MBq, s.c., mean ± SD, n=4, read-out: Liver activity amount): 4.44 ± 0.74 %ID | SUV at 4 h (liver, sc, 0.3 MBq, s.c., 240 min p.i., mean ± SD, n=4, read-out: Liver SUV): 1.75 ± 0.63 SUV | tissue uptake dose at 4 h (liver, sc, 0.3 MBq, s.c., 240 min p.i., mean ± SD, n=4, read-out: Liver activity amount): 6.79 ± 2.27 %ID | SUV at 24 h (liver, sc, 0.3 MBq, s.c., 1440 min p.i., mean ± SD, n=4, read-out: Liver SUV): 2.23 ± 0.32 SUV | tissue uptake dose at 24 h (liver, sc, 0.3 MBq, s.c., 1440 min p.i., mean ± SD, n=4, read-out: Liver activity amount): 11.1 ± 1.82 %ID | SUV at 48 h [15]: 1.4 ± 0.08 SUV
